Data on two substances can be found in article doi:10.1101/2025.08.30.673231.

Where “and” joins values, the source holds several entries; their conditions need not be identical. Equal values may be shown once.

Assay [1] addresses 6xHis-GST-tagged Pichia pastoris Pex5 full length (Pichia pastoris) (UniProt P33292). As to the kind of experiment: BLI.
Assay [2] addresses Pichia pastoris Pex5 full length (tag removed) (Pichia pastoris) (UniProt P33292). As to the kind of experiment: ITC.
The target in assay [3] is Pex5 NTD variants (the Pex5 single E57R mutant and the double mutants R45E/R48E and M61A/F64A). The assay can be described thus: BLI. (In general: BLI is a label-free optical method that tracks binding on a fibre tip over time.)
Assay [4] addresses 6xHis-GST-tagged Pichia pastoris Pex5 CTD (residues 259-576) (Pichia pastoris) (UniProt P33292). As to the kind of experiment: BLI.
Assay [5] has as its target 6xHis-GST-tagged Pichia pastoris Pex5 NTD (residues 1-276) (Pichia pastoris) (UniProt P33292). The assay can be described thus: BLI.
Assay [6] has as its target Pichia pastoris Pex5 NTD (residues 1-276, tag removed) (Pichia pastoris) (UniProt P33292). The assay can be described thus: SEC-SAXS. A general note: Size exclusion chromatography separates by hydrodynamic size, large species first.
For assay [7], the target named is Pichia pastoris Pex5 full length (tag removed) (Pichia pastoris) (UniProt P33292). The assay can be described thus: SEC-SAXS.
The target in assay [8] is Pichia pastoris Pex5 CTD (residues 259-576, tag removed) (Pichia pastoris) (UniProt P33292). As to the kind of experiment: SEC-SAXS.

Turning to “Pichia pastoris Pex8 (ΔPTS1) (domain or fragment)”, the dissociation constant Kd in assay [1] stood at 478 nM.

“Pichia pastoris Pex8 (residues 33-713), N-terminally truncated (domain or fragment)”: the stoichiometry N in assay [2], in assay [6], in assay [7] and in assay [8] was 1 throughout. The fold increase in KD against Pex5 NTD WT in assay [3] was 6 fold and 8 fold. In addition, the Kd stood at 78 nM in assay [1], 4400 nM in assay [4] and 683 nM in assay [5].

A word on the Kd: it is a measure of binding affinity in units of concentration. High values mean lower affinity, low ones higher affinity. Usually stoichiometry N stands for a count of units in the complex or per binding partner.
